Patent US20060286609A1 (BIOCHECK, published 2006)

How the values were obtained:
[1] = target: Human Id1: Histidine (human) (UniProt P41134); test: ELISA, coated antigen, Ab 5.00 ug/ml
Human Id3: Histidine [2] = target: T1, Human Id3: Histidine (human, UniProt Q02535 1-119, limits assumed); test: ELISA, coated antigen, Ab 0.10 ug/ml
T1 construct: E. coli fusion protein (vector pGW07); also called h-Id3: His; not shown: His-tag
T1 sequence (looked up): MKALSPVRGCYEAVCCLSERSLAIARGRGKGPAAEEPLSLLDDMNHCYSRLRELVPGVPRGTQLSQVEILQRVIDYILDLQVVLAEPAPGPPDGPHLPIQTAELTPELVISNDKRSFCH
Method: (§1) Incubate plates at 2-8° C. overnight (16-24 hours). [0145] 11. Shake off the BSA solution. [0146] 12. Dispense 250 μL of 2.5% sucrose solution into each well. [0147] 13. Incubate plates at 2-8° C. for 4 hours. [0148] 14. Shake off sucrose solution. [0149] 15. Dry in vacuum at room temperature overnight. Screening Method [0150] 1. Dispense 100 μL of antibody diluent, diluted rabbit polyclonal anti-Id1 into appropriate wells. […] 2. Incubate at room temperature with mechanical shaking at 750 rpm for 90 minutes. [0152] 3. Remove the incubation mixture by flicking plate content into an appropriate waste container, followed by rinsing the wells 5 times with distilled water. […] 4. Strike the wells sharply onto absorbent paper or paper towels to remove all residual water droplets. [0154] 5. Dispense 100 μL of Goat Anti-Rabbit IgG-HRP Conjugate Reagent into each well. Gently mix for 5 seconds. [0155] 6. Incubate at room temperature with mechanical shaking at 750 rpm for 90 minutes. […] 7. Repeat procedures 3 and 4. [0157] 8. Dispense 100 μL of TMB Reagent into each well. Gently mix for 5 seconds. [0158] 9. Incubate at room temperature with mechanical shaking at 750 rpm for 20 minutes. [0159] 10. Add 100 μL of Stop Solution (1N HCl) into each well. [0160] 11. Gently mix for 10 seconds to ensure a complete mixing. […] 12. Read optical density (absorbance) at 450 nm. Results from this assay were used to select the rabbit sera with the highest antibodies titer that selectively reacts with mouse Id1 or human Id1 or both.
(§2) A comparison was carried out between the reactivity of the rabbit monoclonal anti-mouse Id1, clone #BCH-1/#37-2, of this invention and the mouse monoclonal anti-mouse/human Id1 from BD Pharmingen with the following antigens prepared in Example 5: mouse Id1:His, human Id1:His, human Id2:His, human Id3:His, and GST. These antigens and protein were used to coat the wells.
(§3) Materials and methods were those described in Example 9 except (a) Pharmingen's mouse monoclonal anti-mouse Id1 was used in addition to the rabbit monoclonal anti-mouse Id1 (Example 10), and (b) goat anti-mouse IgG-HRP conjugate was used to process the wells treated with the Pharmingen monoclonal antibody and polyclonal goat anti-rabbit IgG-HRP conjugate was used to process wells treated with rabbit monoclonal anti-mouse Id1.

Human Id2: Histidine [3] = target: T2, Human Id2: Histidine (human, UniProt Q02363 1-134, limits assumed); test: ELISA, coated antigen, Ab 0.10 ug/ml
T2 construct: E. coli fusion protein (vector pGW07); also called h-Id2: His; not shown: His-tag
T2 sequence (looked up): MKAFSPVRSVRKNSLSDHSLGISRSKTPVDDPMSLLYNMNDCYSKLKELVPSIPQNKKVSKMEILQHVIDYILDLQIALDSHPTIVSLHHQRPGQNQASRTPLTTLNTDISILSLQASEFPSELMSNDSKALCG
Method: as §1, §2, §3

Mouse Id1: Histidine [4] = target: T3, Mouse Id1: Histidine (mouse, UniProt P20067-2 1-148); test: ELISA, coated antigen, Ab 0.10 ug/ml
T3 construct: E. coli fusion protein (vector pGW07); also called m-Id1-His; not shown: His-tag
T3 sequence: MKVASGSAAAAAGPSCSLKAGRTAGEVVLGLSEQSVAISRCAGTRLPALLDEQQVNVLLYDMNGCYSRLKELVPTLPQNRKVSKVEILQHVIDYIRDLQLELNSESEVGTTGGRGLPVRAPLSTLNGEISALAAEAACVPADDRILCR
Method: as §1, §2, §3

[5] = target: T4, glutathione S-transferase (GST) (UniProt P08515 1-218 = GST); test: ELISA, coated antigen, Ab 0.10 ug/ml
T4 construct: Coated on wells as control for the fusion partner of the immunogen
Method: as §1, §2, §3

Human Id3: Histidine [6] = target: T1, Human Id3: Histidine; test: ELISA, coated antigen, Ab 10.0 ug/ml
Method: as §1, §2, §3

Human Id2: Histidine [7] = target: T2, Human Id2: Histidine; test: ELISA, coated antigen, Ab 10.0 ug/ml
Method: as §1, §2, §3

Mouse Id1: Histidine [8] = target: T3, Mouse Id1: Histidine; test: ELISA, coated antigen, Ab 10.0 ug/ml
Method: as §1, §2, §3

[9] = target: T4, glutathione S-transferase (GST); test: ELISA, coated antigen, Ab 10.0 ug/ml
Method: as §1, §2, §3

[10] = target: Human Id1: Histidine (human) (UniProt P41134); test: ELISA, coated antigen; relative to mouse Id1
Human Id3: Histidine [11] = target: T1, Human Id3: Histidine; test: ELISA, coated antigen, Ab 0.50 ug/ml
Method: as §1, §2, §3

Human Id2: Histidine [12] = target: T2, Human Id2: Histidine; test: ELISA, coated antigen, Ab 0.50 ug/ml
Method: as §1, §2, §3

Mouse Id1: Histidine [13] = target: T3, Mouse Id1: Histidine; test: ELISA, coated antigen, Ab 0.50 ug/ml
Method: as §1, §2, §3

[14] = target: T4, glutathione S-transferase (GST); test: ELISA, coated antigen, Ab 0.50 ug/ml
Method: as §1, §2, §3

Human Id3: Histidine [15] = target: T1, Human Id3: Histidine; test: ELISA, coated antigen, Ab 1.00 ug/ml
Method: as §1, §2, §3

Human Id2: Histidine [16] = target: T2, Human Id2: Histidine; test: ELISA, coated antigen, Ab 1.00 ug/ml
Method: as §1, §2, §3

Mouse Id1: Histidine [17] = target: T3, Mouse Id1: Histidine; test: ELISA, coated antigen, Ab 1.00 ug/ml
Method: as §1, §2, §3

[18] = target: T4, glutathione S-transferase (GST); test: ELISA, coated antigen, Ab 1.00 ug/ml
Method: as §1, §2, §3

T4 sequence (P08515 whole entry, the tested form may be a part): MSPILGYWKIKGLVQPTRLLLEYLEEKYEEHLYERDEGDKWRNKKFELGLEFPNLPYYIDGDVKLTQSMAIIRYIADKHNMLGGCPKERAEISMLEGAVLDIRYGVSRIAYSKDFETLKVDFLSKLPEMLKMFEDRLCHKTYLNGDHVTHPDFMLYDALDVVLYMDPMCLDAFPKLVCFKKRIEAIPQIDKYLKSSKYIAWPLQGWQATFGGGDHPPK
Chain of Human Id1: Histidine (human) (P41134 whole entry): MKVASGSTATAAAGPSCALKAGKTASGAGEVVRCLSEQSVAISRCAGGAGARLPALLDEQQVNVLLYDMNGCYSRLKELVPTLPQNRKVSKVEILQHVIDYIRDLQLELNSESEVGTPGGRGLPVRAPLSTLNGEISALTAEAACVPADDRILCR

B1: rabbit monoclonal anti-mouse Id1, clone #BCH-1/#37-2 (antibody, V domains shown)
VH: QSVEESGGRLVTPGTPLTLTCKVSGFDINSYAMDWFRQAPGKGLEWIGMMSTRGNTYYTSWAKGRFTISKTSSTTVDLKMTSLTTEDTATYFCARGGLWGPGTLVTVSS
VL: RVLTQTASPVSAAVGGTVTINCQASQSVYNGNRLGWYQLKPGQSPKELIHDASTLASGVPSRFRGSGSGTQFTLTINDVQCDDAATYYCVGSYACSTGDCNVFGGGTEVVVK
notes: Rabbit IgG from hybridoma, Protein G purified; also called m Id1 MoAb 37-2; Rabbit Monoclonal Anti-Mouse Id1 (#37-2)
Binder B1 has an A450 [1] of 0.153 A450, an A450 (Human Id3: Histidine [2]) of 0.048 A450 and an A450 (Human Id2: Histidine [3]) of 0.049 A450. The A450 (Mouse Id1: Histidine [4]) was 1.29 A450, the A450 [5] was 0.047 A450 and the A450 (Human Id3: Histidine [6]) was 0.113 A450. It also gave an A450 (Human Id2: Histidine [7]) of 0.115 A450, an A450 (Mouse Id1: Histidine [8]) of 3.27 A450 and an A450 [9] of 0.108 A450. For the same binder, the Cross-reactivity (%) [10] was under 1%, the A450 (Human Id3: Histidine [11]) was 0.052 A450 and the A450 (Human Id2: Histidine [12]) was 0.052 A450. For the same binder, the A450 (Mouse Id1: Histidine [13]) was 2.46 A450, the A450 [14] was 0.053 A450 and the A450 (Human Id3: Histidine [15]) was 0.063 A450. For the same binder, the A450 (Human Id2: Histidine [16]) was 0.053 A450, the A450 (Mouse Id1: Histidine [17]) was 2.88 A450 and the A450 [18] was 0.062 A450.
